In PMC8408140 (2021) one finds ratio to parent data, which are given here for one variant.

B1: TFEB-EGFP [not stated] / Flag-TNKS1 [not stated] (parent complex)
chain 1: MASRIGLRMQLMREQAQQEEQRERMQQQAVMHYMQQQQQQQQQQLGGPPTPAINTPVHFQSPPPVPGEVLKVQSYLENPTSYHLQQSQHQKVREYLSETYGNKFAAHISPAQGSPKPPPAASPGVRAGHVLSSSAGNSAPNSPMAMLHIGSNPERELDDVIDNIMRLDDVLGYINPEMQMPNTLPLSSSHLNVYSSDPQVTASLVGVTSSSCPADLTQKRELTDAESRALAKERQKKDNHNLIERRRRFNINDRIKELGMLIPKANDLDVRWNKGTILKASVDYIRRMQKDLQKSRELENHSRRLEMTNKQLWLRIQELEMQARVHGLPTTSPSGMNMAELAQQVVKQELPSEEGPGEALMLGAEVPDPEPLPALPPQAPLPLPTQPPSPFHHLDFSHSLSFGGREDEGPPGYPEPLAPGHGSPFPSLSKKDLDLMLLDDSLLPLASDPLLSTMSPEASKASSRRSSFSMEEGDVL
chain 2: MAASRRSQHHHHHHQQQLQPAPGASAPPPPPPPPLSPGLAPGTTPASPTASGLAPFASPRHGLALPEGDGSRDPPDRPRSPDPVDGTSCCSTTSTICTVAAAPVVPAVSTSSAAGVAPNPAGSGSNNSPSSSSSPTSSSSSSPSSPGSSLAESPEAAGVSSTAPLGPGAAGPGTGVPAVSGALRELLEACRNGDVSRVKRLVDAANVNAKDMAGRKSSPLHFAAGFGRKDVVEHLLQMGANVHARDDGGLIPLHNACSFGHAEVVSLLLCQGADPNARDNWNYTPLHEAAIKGKIDVCIVLLQHGADPNIRNTDGKSALDLADPSAKAVLTGEYKKDELLEAARSGNEEKLMALLTPLNVNCHASDGRKSTPLHLAAGYNRVRIVQLLLQHGADVHAKDKGGLVPLHNACSYGHYEVTELLLKHGACVNAMDLWQFTPLHEAASKNRVEVCSLLLSHGADPTLVNCHGKSAVDMAPTPELRERLTYEFKGHSLLQAAREADLAKVKKTLALEIINFKQPQSHETALHCAVASLHPKRKQVTELLLRKGANVNEKNKDFMTPLHVAAERAHNDVMEVLHKHGAKMNALDTLGQTALHRAALAGHLQTCRLLLSYGSDPSIISLQGFTAAQMGNEAVQQILSESTPIRTSDVDYRLLEASKAGDLETVKQLCSSQNVNCRDLEGRHSTPLHFAAGYNRVSVVEYLLHHGADVHAKDKGGLVPLHNACSYGHYEVAELLVRHGASVNVADLWKFTPLHEAAAKGKYEICKLLLKHGADPTKKNRDGNTPLDLVKEGDTDIQDLLRGDAALLDAAKKGCLARVQKLCTPENINCRDTQGRNSTPLHLAAGYNNLEVAEYLLEHGADVNAQDKGGLIPLHNAASYGHVDIAALLIKYNTCVNATDKWAFTPLHEAAQKGRTQLCALLLAHGADPTMKNQEGQTPLDLATADDIRALLIDAMPPEALPTCFKPQATVVSASLISPASTPSCLSAASSIDNLTGPLAELAVGGASNAGDGAAGTERKEGEVAGLDMNISQFLKSLGLEHLRDIFETEQITLDVLADMGHEELKEIGINAYGHRHKLIKGVERLLGGQQGTNPYLTFHCVNQGTILLDLAPEDKEYQSVEEEMQSTIREHRDGGNAGGIFNRYNVIRIQKVVNKKLRERFCHRQKEVSEENHNHHNERMLFHGSPFINAIIHKGFDERHAYIGGMFGAGIYFAENSSKSNQYVYGIGGGTGCPTHKDRSCYICHRQMLFCRVTLGKSFLQFSTMKMAHAPPGHHSVIGRPSVNGLAYAEYVIYRGEQAYPEYLITYQIMKPEAPSQTATAAEQKT

The test covers variants of B1. Nature of the test: co-immunoprecipitation (anti-GFP IP, immunoblot quantification); HEK293T cells; three independent immunoblots; parent: 1; read off a plot. In general terms: Immunoblotting shows a protein as a band on a membrane.
Consider chain 1 V65D, chain 1 G67V, chain 1 E68A, for which the ratio to parent is approximately 0.4.
